Measured values: PMC3685215

Target: recombinant type 1 inositol 1,4,5-trisphosphate receptor, N-terminally tagged with ECFP (rat) (UniProt P29994)
Assay: SEC; Calibrated Superose 6 10/300 GL gel filtration, the final purification step; 50 mM Tris/HCl, 150 mM NaCl, 1 mM EDTA, 1 mM dithiothreitol, 5% glycerol, 0.02% DDM, pH 8.3; 4 °C; oligomeric size of the purified receptor

Substance: recombinant type 1 inositol 1,4,5-trisphosphate receptor, N-terminally tagged with ECFP (from UniProt P29994 1-2750)
- stoichiometry N: 4
